# B1: 225Ac-HER3-ARC (Actinium-225 labeled, p-SCN-Bn-DOTA-conjugated anti-HER3 IgG monoclonal antibody, heavy chain SEQ ID NO:77 and light chain SEQ ID NO:78) (antibody, V domains shown)
# VH: QVQLVESGGGLVKPGGSLRLSCAASGFTFSDYAMSWIRQAPGKGLEWVSTISDGGTYTYYPDSVKGRFTISRDNAKNSLYLQMNSLRAEDTAVYYCAREWGDYDGFDYWGQGTLVTVSS
# VL: DIQMTQSPSSLSASVGDRVTITCRASQEISGYLSWYQQKPGKAPKRLIYAASTLDSGVPSRFSGSGSGTEFTLTISSLQPEDFATYYCLQYDSYPYTFGQGTKLEIKR
# modifications: conjugated to the chelator DOTA using p-SCN-Bn-DOTA and radiolabeled via chelation with Actinium-225; sites of conjugation not stated
# notes: Antibody radioconjugate of m1; also called Ac225 labeled DOTA-conjugated anti-HER3 monoclonal antibody
# B2: anti-HER3 IgG monoclonal antibody consisting of heavy chain SEQ ID NO:77 and light chain SEQ ID NO:78 (unmodified) (antibody, V domains shown)
# VH: B1 VH
# VL: B1 VL
# notes: IgG; Detected with an anti-human IgG secondary antibody; also called unmodified anti-HER3 mAb; unmodified anti-HER3 antibody
# B3: DOTA conjugated AV-203 (conjugate)
# VH: B1 VH
# VL: DIQMTQSPSSLSASVGDRVTITCRASQEISGYLSWYQQKPGKAPKRLIYAASTLDSGVPSRFSGSGSGTEFTLTISSLQPEDFATYYCLQYDSYPYTFGQGTKLEIK
# B4: AV-203: anti-HER3 monoclonal antibody from AVEO Oncology; heavy chain variable region SEQ ID NO:21, light chain variable region SEQ ID NO:22 (antibody, V domains shown)
# VH: B1 VH
# VL: B3 VL
# Key:
# [1] = tested on: PARP; conditions: cited from earlier work
# [2] = tested on: triple-negative breast cancers (TNBC); conditions: TNBC patients, cited from earlier work
# [3] = tested on: OVCAR5 cell line xenograft; experiment: Human OVCAR5 cell line xenograft ovarian cancer mouse model, tumor growth; format: in vivo; conditions: 10 mg/kg on day 1
# Protocol: (§1) FIG. 17A is a graph showing the effects on tumor growth in a human OVCAR5 cell line xenograft ovarian cancer mouse model for ^225Ac-labeled HER3 antibody, in a single dose of 0.2 μCi or 0.4 μCi, versus standard of care Bevacizumab (10 mg/kg), ^225Ac-labeled non-specific IgG control (0.4 μCi), and naked (cold) HER3 mAb control (10 μg). All agents/controls were dosed on day 1.
# as §1, with “17B” for “17A”, “^177Lu-labeled” for “^225Ac-labeled”, “200” for “0.2”, “400” for “0.4”, “(400” for “(0.4”
# [4] = molecular target: T1, total HER3 (Homo sapiens, UniProt P21860); conditions: 40 mg/kg; cited from earlier work
# T1 construct: host or cells: tumour biopsies of patients
# [5] = molecular target: HER3 (Homo sapiens, UniProt P21860); conditions: cited from earlier work
# [6] = tested on: HER3-expressing tumors; conditions: 0.1 mg/kg and 0.3 mg/kg; cited from earlier work
# [7] = molecular target: T2, surface HER3 (Homo sapiens, UniProt P21860); conditions: across all dose levels tested (100-2000 mg); cited from earlier work
# T2 construct: host or cells: tumour biopsies of patients
# [8] = molecular target: human recombinant HER3 (human, UniProt P21860 20-643); experiment: ELISA, plate coated with human recombinant HER3, serial dilutions 0-100 µg/ml, anti-human IgG F(ab')2-HRP secondary
# Protocol: A secondary antibody (Goat Anti-human IgG F (ab′) 20-HRP) was added and incubated for 30 min on ice followed by color development using […] for 10 min.
# [9] = tested on: DU145 human prostate cancer line; experiment: Fluorescence flow cytometry cell binding assay, DU145
# Text: (§2) FIG. 14 is a graph showing the fluorescence flow cytometry cell binding assay results for naked (unlabeled) and DOTA-conjugated (specifically, p-SCN-Bn-DOTA-conjugated) anti-HER3 antibodies AT02 and AV-203, versus nonstained control, secondary antibody (SA) only control, and non-specific IgG primary antibody control, for three human prostate cancer lines, DU145, 22RV1 and LnCAP.
# [10] = tested on: 22RV1 human prostate cancer line; experiment: Fluorescence flow cytometry cell binding assay, 22RV1
# Text: as §2
# [11] = tested on: LnCAP human prostate cancer line; experiment: Fluorescence flow cytometry cell binding assay, LnCAP
# Text: as §2
# [12] = tested on: ACHN human renal cancer cells xenograft; experiment: ACHN human renal cell carcinoma xenograft in Balb/c nude mice, tumor growth; format: in vivo, mouse; conditions: 100 μg on day 1, intravenously
# Protocol: In more detail, the experiment was performed as follows. Female Balb/c nude mice were subcutaneously injected with 5×10^6 ACHN human renal cancer cells (ATCC; CRL-1611). […] Drug treatments were administered orally for vehicle (PBS) and tivozanib or intravenously for unlabeled/unconjugated HER3 monoclonal antibody (HER3), HER3-ARC (Actinium-225 labeled HER3 antibody) and HER3-ADC (patritumab deruxtecan). Single agents or combinations were dosed as follows: vehicle (daily for 14 days), unlabeled/unconjugated HER3 antibody (100 μg on day 1), HER3-ADC (3 mg/kg on day 1 and 21), HER3-ARC (0.4 μCi on day 1 and 0.2 μCi on day 21), tivozanib (0.3 mg/kg daily for 14 days), tivozanib (0.3 mg/kg daily for 14 days) with HER3-ARC (0.4 μCi on day 16), and HER3-ARC (0.4 μCi on day 1) with tivozanib (0.3 mg/kg starting day 3, daily for 14 days). […] HER3-ARC was always administered in a total protein dose of 50 μg irrespective of the radiation dose. Tumor volumes were measured twice weekly by caliper and body weights were monitored. The mean tumor volume for each group was analyzed and graphed using GraphPad Prism software and statistical analysis is performed with Tukey's multiple comparisons test.
molecule,measurement,setting,value
NC(=O)c1cccc2cn(-c3ccc([C@@H]4CCCNC4)cc3)nc12 [niraparib],IC50 values,[1],nanomolar range
O=C(c1cc(Cc2n[nH]c(=O)c3ccccc23)ccc1F)N1CCN(C(=O)C2CC2)CC1 [olaparib],disease stabilization rate,[2]; BRCA1/2-mutant vs non-mutant,higher disease stabilization rate in BRCA1/2-mutant compared to non-mutant patients
same,sustained responses,[2]; either cohort,no sustained responses
CNCc1ccc(-c2[nH]c3cc(F)cc4c3c2CCNC4=O)cc1 [rucaparib],IC50 values,[1],nanomolar range
Cn1ncnc1[C@H]1c2n[nH]c(=O)c3cc(F)cc(c23)N[C@@H]1c1ccc(F)cc1 [talazoparib],IC50 values,[1],picomolar range
C[C@]1(c2nc3c(C(N)=O)cccc3[nH]2)CCCN1 [veliparib],IC50 values,[1],nanomolar range
Bevacizumab: standard of care agent; VEGF inhibitor [reference compound],antitumor efficacy (tumor growth),[3],minimal effect
LJM716: HER3-targeting antibody from Novartis,"decrease in total HER3 levels, paired tumor biopsy samples",[4],three out of five
lumretuzumab: HER3 antibody from Roche,downregulation of HER3,[5]; 1-10 mg/kg,dose-dependent
same,HER3 target downregulation,[5]; lowest dose 0.3 mg/kg,did not result in HER3 target downregulation
same,control of HER3-expressing tumors,[6],ineffective
same,downregulation of surface HER3 in serial tumor biopsies,[7],92 % of patients
B1,EC50,[8],1.7 ng/mL
B2,EC50,[8],2.2 ng/mL
B3,cell binding,[9],specifically and comparably bound
same,cell binding,[10],specifically and comparably bound
same,cell binding,[11],specifically and comparably bound
B4,tumor growth (mean tumor volume),[12],no effect on tumor growth
same,cell binding,[9],specifically and comparably bound
same,cell binding,[10],specifically and comparably bound
same,cell binding,[11],specifically and comparably bound

# — US20250205375A1, “HER3 RADIOIMMUNOTHERAPY FOR THE TREATMENT OF SOLID CANCERS” (ACTINIUM PHARMACEUTICALS, INC., priority 2023, published 2025)
